Measured values as given in patent publication US20100009868, “Self-Assembled Combinatorial Encoding Nanoarrays for Multiplexed Biosensing” (The Arizona Board of Regents a body corporate acti ng for …, published 2010).
Like-named read-outs stand apart in the source and are kept apart here.

Columns and labels:
[1] = target: T1, BSA (bovine serum albumin) (UniProt P02769 P02769:25-607); assay: 6 uM BSA, no color change of array; details: label: Alexa Fluor 488
Experimental: (§1) Desired amount of detection targets were added into 10 μl multiplexed detection solution. Unless elsewhere mentioned, final concentration of detection targets was 0.5 μM for DNA targets, 6 μM for thrombin and 3 mM for ATP. The mixture was thoroughly mixed by vortexing and then incubated at room temperature for 30 min before imaging.
(§2) Two different aptamer binding targets were used: human α-thrombin and ATP (See Table 1). The DNA sequences of probe 3 and 4 are, in fact, the aptamer sequences for these two targets.

[2] = target: alpha-thrombin (Homo sapiens, UniProt P00734;P00734 P00734:328-363,P00734:364-622); assay: possibly CITED (ref 13); apparent Kd for strand-displacement probe; Table 1 labels of probes 3 and 4 appear swapped, Table 2 and sequence assign probe 3 to thro
[3] = target: T1, BSA (bovine serum albumin); assay: no significant 3MI fluorescence change on array; details: label: 3MI at position 7
[4] = target: T2, alpha-thrombin (Homo sapiens, UniProt P00734;P00734 P00734:328-363,P00734:364-622)
[5] = target: T2, alpha-thrombin; assay: no color change of array; 6 uM thrombin, 1xTAE-Mg, RT; details: label: Alexa Fluor 488; partially hybridised to anchor strand on DNA B tile
Experimental: as §1, §2

[6] = partially hybridised to anchor strand on DNA B tile

T1 sequence (P02769 25-607, one chain of several): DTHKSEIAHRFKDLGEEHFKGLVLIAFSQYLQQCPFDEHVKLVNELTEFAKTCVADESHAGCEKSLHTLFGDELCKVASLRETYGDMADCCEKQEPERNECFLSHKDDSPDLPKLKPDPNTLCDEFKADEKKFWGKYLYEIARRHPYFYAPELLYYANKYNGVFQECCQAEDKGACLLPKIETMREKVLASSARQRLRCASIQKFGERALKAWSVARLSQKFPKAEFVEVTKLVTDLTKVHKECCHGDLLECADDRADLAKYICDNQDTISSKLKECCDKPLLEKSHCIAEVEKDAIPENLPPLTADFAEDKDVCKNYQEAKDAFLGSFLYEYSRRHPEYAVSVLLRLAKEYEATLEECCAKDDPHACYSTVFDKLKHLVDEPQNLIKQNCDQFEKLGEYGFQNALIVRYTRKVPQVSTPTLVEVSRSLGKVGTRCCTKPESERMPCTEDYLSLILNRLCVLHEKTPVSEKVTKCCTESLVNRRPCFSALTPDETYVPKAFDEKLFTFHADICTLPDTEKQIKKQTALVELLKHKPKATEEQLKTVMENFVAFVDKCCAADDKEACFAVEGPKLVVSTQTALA

## CACTGACCTGGGGGAGTATTGCGGAGGAAGGT (ssDNA) [Probe 4 (ATP aptamer containing)]
[1]; [6]
  binding result: no binding

## CACTGTGGTTGGTGTGGTTGG (ssDNA) [Probe 3 (thrombin aptamer containing)]
[1]; partially hybridised to anchor strand on DNA B tile (8-12 bp)
  binding result: no binding
[2]
  Kd: ~400 nM

## GGTTGGTGTGGTTGG (structured_DNA, dT7 replaced by 3-methylisoxanthopterin (3MI)) [3MI-TBA signaling aptamer on DNA tile array]
[3]
  binding result: no binding

## CGTCTCTACCTGATTACTATTGCATCT (ssDNA) [Probe 1 (SARS probe)]
[1]; [6]
  binding result: no binding
[4]
  binding result: no binding

## TTTAACAGCAGTTGAGTTGATACTACTGGCCTAATTCCA (ssDNA) [Probe 2 (HIV probe)]
[1]; [6]
  binding result: no binding
[5]
  binding result: no binding
